Source: publication PMC5783996

Biological target: Botryococcus braunii light-harvesting complexes (BB LHCII), apoproteins of the trimeric fraction B3 (Botryococcus braunii (endogenous in strain CCALA778 thylakoids))
Assay: sucrose density gradient ultracentrifugation; thylakoids solubilised with 1% α-DM (also OG) at room temperature, complexes separated on a sucrose density gradient; bands assigned by position (MW)

## Botryococcus braunii light-harvesting complexes (BB LHCII), apoproteins of the trimeric fraction B3
  stoichiometry N: 3
